Results reported in US20070141662.

Molecular target: CISNN116 (NT1-C3-hIL21) (UniProt Q9HBE4)
Sequence (Q9HBE4 other isoform, or with tags, fused parts or gaps): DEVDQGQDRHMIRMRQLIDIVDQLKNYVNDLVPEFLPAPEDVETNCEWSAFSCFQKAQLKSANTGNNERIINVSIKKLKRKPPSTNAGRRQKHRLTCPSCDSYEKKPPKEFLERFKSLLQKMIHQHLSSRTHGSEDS

Caspase 3
completion of the proteolysis reaction (Maldi analysis), 1 hour at 37° C.: Maldi analysis showed 87% completion of the reaction
